The record followed here is paper PMC4297426.

In this test the target is Gal4 (BD)-human NP: nucleoprotein of the contemporary human IAV H3N2 strain A/Ca/07/04 (influenza A virus H3N2, strain A/Ca/07/04 (human)). The test can be described thus: two-hybrid.
“ATPase, Na+/K+ transporting, beta 1 polypeptide (ATP1B1) (domain or fragment)” registered a β-Gal activity of 3.4 Miller units. As for “Acyl-CoA thioesterase 13 (ACOT13) (from UniProt Q9NPJ3 1-140) (natural protein)”, the figure is 6.9 Miller units. As for “Cytoskeleton associated protein 5 (CKAP5) (domain or fragment)”, the figure is 70.1 Miller units; as for “FLJ30306 (…: Homo sapiens uncharacterized LOC101059922, mRNA) (natural protein)”, 1.9 Miller units; as for “Myb/SANT-like DNA-binding domain containing 3 (MSANTD3) (domain or fragment)”, 13.9 Miller units. As for “Potassium channel tetramerisation domain containing 9 (KCTD9) (domain or fragment)”, the figure is 5 Miller units; as for “Proteasome (prosome, macropain) activator subunit 2 (PA28B) (from UniProt Q9UL46 1-239) (natural protein)”, 6.7 Miller units; as for “Solute carrier family 30 (zinc transporter), member 9 (SLC30A9) (domain or fragment)”, 82.9 Miller units. “Transformer 2 beta homolog (Drosophila) (TRA2B) (from UniProt P62995 1-288) (natural protein)”: the β-Gal activity was determined as 1.9 Miller units.

The substance “phosphoribosylaminoimidazole carboxylase, phosphoribosylaminoimidazole succinocarboxamide synthetase (PAICS) (from UniProt P22234 1-425) (natural protein)” had a β-Gal activity of 2.2 Miller units.
